Reference: US20130315910A1 (Xencor, published 2013)
Residue numbers refer to the chain shown, from its start. Names and notes keep the numbering of the source.

B1: anti-CD19 antibody HuAM4G7, WT (native) IgG1 (antibody)
heavy: not shown
light: DIVMTQSPATLSLSPGERATLSCRSSKSLQNVNGNTYLYWFQQKPGQSPQLLIYRMSNLNSGVPDRFSGSGSGTEFTLTISSLEPEDFAVYYCMQHLEYPITFGAGTKLEIKRTVAAPSVFIFPPSDEQLKSGTASVVCLLNNFYPREAKVQWKVDNALQSGNSQESVTEQDSKDSTYSLSSTLTLSKADYEKHKVYACEVTHQGLSSPVTKSFNRGEC
notes: also called WT IgG1; anti-CD19-IgG1; copies: 2 + 2
B2: anti-CD19 antibody HuAM4G7 IgG1 S267E/L328F (antibody)
heavy: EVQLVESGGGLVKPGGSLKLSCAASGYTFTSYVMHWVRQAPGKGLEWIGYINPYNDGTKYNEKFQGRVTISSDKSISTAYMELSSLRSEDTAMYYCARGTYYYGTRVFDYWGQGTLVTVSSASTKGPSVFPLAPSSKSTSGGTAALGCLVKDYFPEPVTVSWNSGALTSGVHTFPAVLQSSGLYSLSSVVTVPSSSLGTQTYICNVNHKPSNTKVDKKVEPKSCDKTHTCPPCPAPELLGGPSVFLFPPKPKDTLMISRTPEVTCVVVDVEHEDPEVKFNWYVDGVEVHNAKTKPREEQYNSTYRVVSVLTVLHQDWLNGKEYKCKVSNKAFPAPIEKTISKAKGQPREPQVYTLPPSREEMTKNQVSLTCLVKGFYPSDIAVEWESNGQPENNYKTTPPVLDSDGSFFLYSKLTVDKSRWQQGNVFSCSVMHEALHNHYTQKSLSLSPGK
light: B1 light
notes: Positions in EU numbering; also called anti-CD19-S267E/L328F; α-CD19-S267E/L328F; copies: 2 + 2

Tests used:
[1] = biological target: T1, human FcγRIIa (131H), His- and GST-tagged (human, UniProt P12318 34-217); experiment: SPR
T1 construct: also called H131 FcγRIIa; HIIa; not shown: 6xHis and GST tags of the pTT5 vector
T1 sequence (looked up): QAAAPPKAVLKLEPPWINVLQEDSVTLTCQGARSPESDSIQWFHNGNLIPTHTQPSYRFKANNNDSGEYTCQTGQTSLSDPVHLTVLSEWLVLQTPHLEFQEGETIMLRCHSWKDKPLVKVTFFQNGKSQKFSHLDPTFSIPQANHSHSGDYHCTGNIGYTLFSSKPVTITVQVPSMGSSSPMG

[2] = biological target: T2, human FcγRIIa (131R), His- and GST-tagged (human, UniProt P12318 34-217); experiment: SPR
T2 construct: Expressed in HEK293T cells, purified by nickel chromatography; also called R131 FcγRIIa; not shown: 6xHis and GST tags of the pTT5 vector
T2 sequence (looked up): T1 sequence (looked up) with H134R

[3] = biological target: T3, human FcγRIIIa (158V), His- and GST-tagged (human, UniProt P08637 17-208); experiment: SPR
T3 construct: also called V158 FcγRIIIa; VIIIa; not shown: 6xHis and GST tags of the pTT5 vector

[4] = biological target: T4, human FcγRIIIa (158F), His- and GST-tagged (human, UniProt P08637 17-208); experiment: SPR
T4 construct: also called F158 FcγRIIIa; not shown: 6xHis and GST tags of the pTT5 vector

[5] = biological target: T5, human FcγRIIb receptor protein (R&D Systems) (human, UniProt P31994 46-217); experiment: SPR
T5 construct: Bought protein injected over captured antibody in Biacore; also called CD32b
T5 sequence (looked up): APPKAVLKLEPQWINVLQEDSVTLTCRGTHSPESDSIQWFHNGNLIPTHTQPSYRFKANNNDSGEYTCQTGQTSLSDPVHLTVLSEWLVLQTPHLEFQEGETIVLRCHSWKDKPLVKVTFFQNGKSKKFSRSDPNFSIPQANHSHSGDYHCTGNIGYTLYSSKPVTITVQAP

[6] = biological target: T6, human FcγRI receptor protein (R&D Systems) (human, UniProt P12314 16-288); experiment: SPR
T6 construct: also called soluble FcγRI; solFcγRI

[7] = biological target: T5, human FcγRIIb receptor protein (R&D …); experiment: Biacore SPR, antibody captured on protein A/G chip, FcγR injected, 1:1 Langmuir fit
Method: Variants were screened for receptor affinity using Biacore™ technology, also referred to as Biacore herein, a surface plasmon resonance (SPR) based technology for studying biomolecular interactions in real time. SPR measurements were performed using a Biacore 3000 instrument (Biacore, Piscataway, N.J.). A protein A/G (Pierce Biotechnology) CM5 biosensor chip (Biacore) was generated using a standard primary amine coupling protocol. All measurements were performed using HBS-EP buffer (10 mM HEPES pH 7.4, 0.15 M NaCl, 3 mM EDTA, 0.005% vol/vol surfactant P20, Biacore). Antibodies at 20 nM or 50 nM in HBS-EP buffer were immobilized on the protein A/G surface and FcγRs were injected. After each cycle, the surface was regenerated by injecting glycine buffer (10 mM, pH 1.5). Data were processed by zeroing time and response before the injection of FcγR and by subtracting appropriate nonspecific signals (response of reference channel and injection of running buffer). Kinetic analyses were performed by global fitting of binding data with a 1:1 Langmuir binding model using BIAevaluation software (Biacore).

cynoFcγRIIIa = biological target: T7, cynoFcγRIIIa (Macaca fascicularis, UniProt Q8SPW2); experiment: SPR, Kd
T7 construct: extracellular region, C-terminal His- and GST-tag; also called cynomolgus monkey FcγRIIIa
Summary of the method: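 Biacore 3000 SPR; protein A/G capture of antibody (20 or 50 nM) on CM5; cyno FcγR ECD as analyte; HBS-EP pH 7.4 running buffer; glycine pH 1.5 regeneration; reference- and buffer-subtracted; global 1:1 Langmuir fit for kinetics.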

mFcγRIIb = biological target: T8, mFcγRIIb (Mus musculus, UniProt P08101); experiment: SPR
T8 construct: extracellular region, C-terminal His- and GST-tag; also called mouse FcγRII
T8 sequence (receptor extracellular region, looked up): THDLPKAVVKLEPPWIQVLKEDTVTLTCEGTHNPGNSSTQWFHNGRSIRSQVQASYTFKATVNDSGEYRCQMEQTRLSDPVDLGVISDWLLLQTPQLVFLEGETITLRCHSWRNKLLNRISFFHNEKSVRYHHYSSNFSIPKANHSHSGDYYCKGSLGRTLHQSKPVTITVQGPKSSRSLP

cynoFcγRIIb = biological target: T9, cynoFcγRIIb (Macaca fascicularis, UniProt A0A140HDP4); experiment: SPR
T9 construct: extracellular region, C-terminal His- and GST-tag; also called cynomolgus monkey FcγRIIb
T9 sequence (receptor extracellular region): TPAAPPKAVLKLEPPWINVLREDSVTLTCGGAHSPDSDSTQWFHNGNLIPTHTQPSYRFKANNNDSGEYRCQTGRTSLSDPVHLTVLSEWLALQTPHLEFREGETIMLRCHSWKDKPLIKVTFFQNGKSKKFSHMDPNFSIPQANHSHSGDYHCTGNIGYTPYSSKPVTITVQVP

mFcγRIV = biological target: T10, mFcγRIV; experiment: SPR
T10 construct: also called mouse FcγRIV; not shown: C-terminal His and GST tags (named only on our card)
T10 chain: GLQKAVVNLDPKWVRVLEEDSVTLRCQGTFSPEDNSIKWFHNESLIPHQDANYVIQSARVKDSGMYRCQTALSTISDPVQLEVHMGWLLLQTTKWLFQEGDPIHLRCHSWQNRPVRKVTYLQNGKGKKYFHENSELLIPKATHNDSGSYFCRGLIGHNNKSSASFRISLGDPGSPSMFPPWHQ

[8] = biological target: T11, human FcγRIIb on cells (transfected HEK293T cells; primary human B cells) (human, UniProt P31994 43-310); experiment: flow cytometry on HEK293T cells transfected with human FcγRIIb, PE anti-human Fab detection
T11 construct: whole, on cells; also called CD32b
T11 sequence (looked up): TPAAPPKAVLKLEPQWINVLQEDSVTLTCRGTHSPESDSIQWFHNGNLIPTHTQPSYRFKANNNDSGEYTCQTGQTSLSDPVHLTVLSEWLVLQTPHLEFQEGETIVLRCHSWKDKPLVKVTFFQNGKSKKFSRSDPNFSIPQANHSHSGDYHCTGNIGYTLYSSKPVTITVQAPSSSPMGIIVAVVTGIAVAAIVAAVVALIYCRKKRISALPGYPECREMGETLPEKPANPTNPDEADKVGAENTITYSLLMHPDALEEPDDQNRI
Method: In order to validate the Biacore data and evaluate receptor binding of the variants on the cell surface, binding of select antibodies to cells expressing FcγRIIb was measured. […] HEK293T cells in DMEM with 10% FBS were transfected with human FcγRIIb cDNA in pCMV6 expression vector (Origene Technologies, Rockville, Md.), cultured for 3 days, harvested, washed twice in PBS, resuspended in PBS with 0.1% BSA (PBS/BSA), and aliquoted at 2×10^5 cells per well into 96-well microtiter plates. Fc variant antibodies were serially diluted in PBS/BSA then added to the cells and incubated with mixing for 1 h at room temperature. After extensive washing with PBS/BSA, phycoerythrin (PE)-labeled anti-human-Fab-specific goat F(ab′)2 fragment was added for detection. Cells were incubated for 30 min at room temperature, washed, and resuspended in PBS/BSA. Binding was evaluated using a FACSCanto II flow cytometer (BD Biosciences, San Jose, Calif.), and the mean fluorescence intensity (MFI) was plotted as a function of antibody concentration using Graph Pad Prism software (GraphPad Software, San Diego, Calif.) from which half-maximal binding (EC50) values were determined by sigmoidal dose response modeling.
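For Fold vs WT IgG1 (off-rate) in this document: fold improvement over WT IgG1 so higher means slower dissociation than WT.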

T6 sequence (P12314 16-288 limits assumed): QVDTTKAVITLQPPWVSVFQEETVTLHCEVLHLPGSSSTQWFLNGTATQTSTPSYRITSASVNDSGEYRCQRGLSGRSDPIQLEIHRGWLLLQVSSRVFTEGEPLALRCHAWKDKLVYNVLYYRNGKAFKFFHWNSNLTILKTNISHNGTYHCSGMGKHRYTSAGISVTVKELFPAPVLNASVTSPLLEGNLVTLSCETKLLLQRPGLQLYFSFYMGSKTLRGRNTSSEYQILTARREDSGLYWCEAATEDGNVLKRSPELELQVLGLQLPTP
T3 sequence (P08637 17-208 F176V): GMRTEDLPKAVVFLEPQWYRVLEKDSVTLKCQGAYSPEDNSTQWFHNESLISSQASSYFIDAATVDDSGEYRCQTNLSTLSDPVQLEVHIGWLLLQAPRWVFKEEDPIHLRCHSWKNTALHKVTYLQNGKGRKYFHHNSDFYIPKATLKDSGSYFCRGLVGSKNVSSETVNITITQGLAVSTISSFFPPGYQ
T7 sequence (Q8SPW2 17-208): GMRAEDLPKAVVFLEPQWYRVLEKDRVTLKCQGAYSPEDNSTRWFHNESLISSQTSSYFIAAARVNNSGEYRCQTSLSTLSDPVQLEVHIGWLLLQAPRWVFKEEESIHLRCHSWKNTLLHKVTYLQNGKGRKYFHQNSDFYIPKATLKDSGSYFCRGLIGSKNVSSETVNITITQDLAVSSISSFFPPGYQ
T4 sequence (P08637 17-208): as the sequence (P08637 17-208 F176V) above, with V160F counted along it

Binder | Fold vs WT IgG1 [1] [fold] | Kd [1] [nM] | Fold vs WT IgG1 [2] [fold] | Kd [2] [nM] | Fold vs WT IgG1 [3] [fold] | Kd [3] [nM] | Fold vs WT IgG1 [4] [fold] | Fold vs WT IgG1 [5] [fold] | Fold vs WT IgG1 [6] [fold] | Kd [6] [nM] | Kd [7] [nM] | binding result (cynoFcγRIIIa) | Fold vs WT IgG1 (Kd) (mFcγRIIb) [fold] | Fold vs WT IgG1 (off-rate) (mFcγRIIb) [fold] | Fold vs WT IgG1 (Kd) (cynoFcγRIIb) [fold] | Fold vs WT IgG1 (off-rate) (cynoFcγRIIb) [fold] | Fold vs WT IgG1 (Kd) (mFcγRIV) [fold] | Fold vs WT IgG1 (off-rate) (mFcγRIV) [fold] | fold EC50 relative to WT IgG1 [8] [fold] | Kd [5] [nM]
B1 | 1 | 646 | 1 | 859 | 1 | 191 | 1 | 1 | 1 | 0.329 | 1470 | – | – | – | – | – | – | – | – | –
B2 | 0.7 | 923 | 275 | 3.12 | 0.038 | 5040 | – | 242 | 1.5 | 0.22 | – | no binding | 1.06 | 4.89 | 0.881 | 1.26 | 0.02 | 0.198 | ~320 | 6.06
